T1: C-His Ana GvpC with calpain cleavage site (engineered Anabaena flos-aquae GvpC, calpain-sensitive)
T1 chain: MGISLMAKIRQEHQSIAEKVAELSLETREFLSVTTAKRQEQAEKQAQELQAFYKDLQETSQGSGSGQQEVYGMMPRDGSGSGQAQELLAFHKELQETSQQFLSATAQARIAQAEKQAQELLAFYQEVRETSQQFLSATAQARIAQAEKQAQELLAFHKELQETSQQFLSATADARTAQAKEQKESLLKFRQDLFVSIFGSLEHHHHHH

T2: WT C-His Ana GvpC
T2 chain: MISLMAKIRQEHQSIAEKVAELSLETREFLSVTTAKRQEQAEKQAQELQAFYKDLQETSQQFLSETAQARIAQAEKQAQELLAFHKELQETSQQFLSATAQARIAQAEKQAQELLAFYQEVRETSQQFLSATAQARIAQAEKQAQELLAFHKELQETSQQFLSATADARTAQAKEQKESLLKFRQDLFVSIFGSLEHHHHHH

T3: C-His Ana GvpC with TEV cleavage site (engineered Anabaena flos-aquae GvpC, TEV-sensitive)
T3 chain: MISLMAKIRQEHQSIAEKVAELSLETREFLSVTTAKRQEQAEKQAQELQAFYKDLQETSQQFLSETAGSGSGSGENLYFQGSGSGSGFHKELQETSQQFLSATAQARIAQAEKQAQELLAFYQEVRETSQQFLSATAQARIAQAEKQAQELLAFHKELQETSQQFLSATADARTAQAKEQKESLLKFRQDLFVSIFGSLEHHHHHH

B1: calpain-1 from porcine erythrocytes (protein)
chain 1: MAEEVITPVYCTGVSAQVQKLRAKELGLGRHENAIKYLGQDYEQLRAHCLQSGSLFRDEAFPPVPQSLGFKELGPNSSKTYGVKWKRPTELFSNPQFIVDGATRTDICQGALGDCWLLAAIASLTLNDTLLHRVVPHGQSFQNGYAGIFHFQLWQFGEWVDVVVDDLLPTKDGKLVFVHSAQGNEFWSALLEKAYAKVNGSYEALSGGSTSEGFEDFTGGVTEWYELRKAPSDLYSIILKALERGSLLGCSIDISSVLDMEAVTFKKLVKGHAYSVTGAKQVNYQGQMVNLIRMRNPWGEVEWTGAWSDGSSEWNGVDPYQRDQLRVRMEDGEFWMSFRDFLREFTRLEICNLTPDALKSQRVRNWNTTLYEGTWRRGSTAGGCRNYPATFWVNPQFKIRLEETDDPEDDYGGRESGCSFVLALMQKHRRRERRFGRDMETIGFAVYEVPPELVGQPVHLKRDFFLANASRARSEQFINLREVSTRFRLPPGEYVVVPSTFEPNKEGDFVLRFFSEKKAGTQELDDQVQAILPDEQVLSEEEIDENFKALFRQLAGEDMEISVRELRTILNRIISKHKDLRTKGFSLESCRSMVNLMDRDGNGKLGLVEFNILWNRIRNYLSIFRKFDLDKSGSMSAYEMRMAIESAGFKLNKKLFELIITRYSEPDLAVDFDNFVCCLVRLETMFRFFKTLDTDLDGVVTFDLFKWLQLTMFA
chain 2: MFLVNSFLKGGGGGGGGGGGLGGGLGNVLGGLISGAGGGGGGGGGGGGGGGGGGTAMRILGGVISAISEAAAQYNPEPPPPRTHYSNIEANESEEVRQFRRLFAQLAGDDMEVSATELMNILNKVVTRHPDLKTDGFGIDTCRSMVAVMDSDTTGKLGFEEFKYLWNNIKKWQAIYKQFDVDRSGTIGSSELPGAFEAAGFHLNEHLYSMIIRRYSDEGGNMDFDNFISCLVRLDAMFRAFKSLDKDGTGQIQVNIQEWLQLTMYS
B2: recombinant TEV protease (Tobacco etch virus protease) (protein)
chain: GESLFKGPRDYNPISSTICHLTNESDGHTTSLYGIGFGPFIITNKHLFRRNNGTLLVQSLHGVFKVKNTTTLQQHLIDGRDMIIIRMPKDFPPFPQKLKFREPQREERICLVTTNFQTKSMSSMVSDTSCTFPSSDGIFWKHWIQTKDGQCGSPLVSTRDGFIVGIHSASNFTNTNNYFTSVPKNFMELLTNQEAQQWVSGWRLNADSVLWGGHKVFMSKPEEPFQPVKEATQLMNELVYSQ

Tests used:
[1] = biological target: T1, C-His Ana GvpC with calpain cleavage …
WT C-His Ana GvpC = biological target: T2, WT C-His Ana GvpC
[2] = biological target: T3, C-His Ana GvpC with TEV cleavage site …

| Protein | cleavage on Coomassie-stained SDS-PAGE [1] | collapse pressure after exposure to calpain and calcium (FIG. 8B) [1] | hydrostatic collapse pressure (pressurized absorbance spectroscopy) [1] | nonlinear (x-AM) ultrasound contrast [1] | nonlinear contrast to noise ratio with calpain and calcium (FIG. 8G) [1] | cleavage on SDS-PAGE, GV collapse pressure and ultrasound response (WT C-His Ana GvpC) | cleavage on Coomassie-stained SDS-PAGE [2] | hydrostatic collapse pressure midpoint (pressurized absorbance spectroscopy) [2] | nonlinear (x-AM) ultrasound contrast-to-noise ratio enhancement [2] | hydrostatic collapse pressure, nonlinear acoustic contrast and cleavage on SDS-PAGE (WT C-His Ana GvpC) |
| --- | --- | --- | --- | --- | --- | --- | --- | --- | --- | --- |
| B1 | Electrophoretic analysis confirmed cleavage and partial dissociation of the cleaved fragments from the GV surface | ˜290 kPa compared to 336-344 kPa | an approximately 50 kPa decrease in hydrostatic collapse pressure in the presence of the enzyme and its ionic activator | the maximal nonlinear sensor contrast of GVScalp of approximately 7 dB | (+Calp/+Ca^2+) shows a stronger nonlinear ratio (CNR=10.3) | showed no proteolytic cleavage, change in GV collapse pressure or ultrasound response, after incubation with calcium-activated calpain |  |  |  |  |
| B2 |  |  |  |  |  |  | gel electrophoresis of GVSTEV after exposure to active TEV resulted in the appearance of the two cleaved GvpC fragments and a significant reduction in the intact GvpC band | ˜70 kPa reduction in its collapse pressure midpoint upon incubation with the active TEV protease | a maximal contrast-to-noise ratio (CNR) enhancement of ˜7 dB at an applied acoustic pressure of 438 kPa | showed no difference in their hydrostatic collapse pressure or nonlinear acoustic contrast in response to TEV protease (FIGS. 7I-7K), and no wild-type GvpC cleavage was seen upon gel electrophoresis |
